Here are results for one molecule from PMC4822036, “Rab35 GTPase couples cell division with initiation of epithelial apico-basal polarity and lumen opening” (Nature Communications, 2016).

The assay deals with T1, 6xHis–Rab35^WT full-length (human, UniProt Q15286 1-201).
T1 construct: Rab35 GTPase, full-length, wild type; Exchanged with 1 mM GDP or 200 μM GTPγS before the pull-down; The species is not repeated for the His construct; also called 6xHis-tagged Rab35^WT; source: E. coli BL21 pLysS, purified (Ni-NTA Magnetic Agarose Beads)
T1 sequence (Q15286 whole entry): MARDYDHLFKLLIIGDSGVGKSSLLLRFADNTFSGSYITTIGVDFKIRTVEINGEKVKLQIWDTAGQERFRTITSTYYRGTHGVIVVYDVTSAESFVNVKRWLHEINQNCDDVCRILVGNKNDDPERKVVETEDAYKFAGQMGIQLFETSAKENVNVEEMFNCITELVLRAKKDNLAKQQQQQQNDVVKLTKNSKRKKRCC
The experiment in a line: pull-down; GST–PODXL tail or GST on glutathione Sepharose 4B beads incubated with 6xHis-Rab proteins exchanged with 1 mM GDP or 200 μM GTPγS; 25 mM Tris pH 7.5, 50 mM NaCl, 10 mM MgCl2, 0.1% Triton X-100, 0.2% BSA; western blot with anti-6xHis. The note with it: both partners purified. For orientation: Immunoblotting shows a protein as a band on a membrane.

B1: GST–PODXL WT (aa 476–551) (domain or fragment, rabbit, UniProt Q28645 476-551, looked up)
chain: CHQRLSHRKDQQRLTEELQTVENGYHDNPTLEVMETSAEMQEKKVVNLNGELGDSWIVPLDNLTKDDLDEEEDTHL
notes: The species is not repeated for the GST construct; source: E. coli BL21 pLysS, purified (glutathione Sepharose 4B)
On to B1, for which the binding result is recorded as “binds”.
